Measured values taken from patent US20180318386A1, “PEPTIDES AND METHODS OF TREATING ENDOMETRIOSIS USING THE SAME” (BIOINCEPT, LLC, priority 2014, published 2018).

What was measured:
Assay in all cases: PIF affinity resin pull-down, CD14+ cell lysate, LC-MS/MS count
[1] = target: 14-3-3 protein eta (human) (UniProt Q04917)
[2] = target: 14-3-3 protein gamma (human) (UniProt P61981)
[3] = target: Actin, cytoplasmic 2 (human) (UniProt P63261)
Calreticulin (human) = Calreticulin (human) (UniProt P27797)
[4] = target: Centrosomal protein of 120 kDa (Fragment) (human) (UniProt Q8N960)
Coronin-1A (human) = Coronin-1A (human) (UniProt P31146)
Endoplasmin (human) = Endoplasmin (human) (UniProt P14625)
[5] = target: Histone-binding protein RBBP7 (human) (UniProt Q16576)
[6] = target: Isoform 1 of Vinculin (human) (UniProt P18206)
[7] = target: Isoform 2 of Heat shock protein HSP 90-alpha (human) (UniProt P07900)
[8] = target: Lymphocyte-specific protein 1 (human) (UniProt P33241)
Matrin-3 (human) = Matrin-3 (human) (UniProt A8MXP9)
Plastin-2 (human) = Plastin-2 (human) (UniProt P13796)
Talin-1 (human) = Talin-1 (human) (UniProt Q9Y490)
Thymosin alpha-1 (human) = Thymosin alpha-1 (human) (UniProt P06454)
[9] = target: Tubulin alpha-4A chain (human) (UniProt P68366)
Sequence of Tubulin alpha-4A chain (human) (P68366 whole entry): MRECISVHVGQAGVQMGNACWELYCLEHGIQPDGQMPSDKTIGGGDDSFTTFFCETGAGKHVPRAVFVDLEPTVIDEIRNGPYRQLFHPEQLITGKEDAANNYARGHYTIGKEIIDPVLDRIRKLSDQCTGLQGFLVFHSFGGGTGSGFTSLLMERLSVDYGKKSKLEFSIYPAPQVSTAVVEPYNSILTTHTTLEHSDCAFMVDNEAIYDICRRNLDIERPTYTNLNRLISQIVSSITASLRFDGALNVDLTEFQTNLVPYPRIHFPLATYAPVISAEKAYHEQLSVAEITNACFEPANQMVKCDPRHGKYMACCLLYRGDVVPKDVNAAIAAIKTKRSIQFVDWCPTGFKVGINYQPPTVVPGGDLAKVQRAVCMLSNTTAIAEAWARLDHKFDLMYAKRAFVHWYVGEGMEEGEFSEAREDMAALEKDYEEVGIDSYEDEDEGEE

Sequence of Centrosomal protein of 120 kDa (Fragment) (human) (Q8N960 whole entry, the tested form may be a part): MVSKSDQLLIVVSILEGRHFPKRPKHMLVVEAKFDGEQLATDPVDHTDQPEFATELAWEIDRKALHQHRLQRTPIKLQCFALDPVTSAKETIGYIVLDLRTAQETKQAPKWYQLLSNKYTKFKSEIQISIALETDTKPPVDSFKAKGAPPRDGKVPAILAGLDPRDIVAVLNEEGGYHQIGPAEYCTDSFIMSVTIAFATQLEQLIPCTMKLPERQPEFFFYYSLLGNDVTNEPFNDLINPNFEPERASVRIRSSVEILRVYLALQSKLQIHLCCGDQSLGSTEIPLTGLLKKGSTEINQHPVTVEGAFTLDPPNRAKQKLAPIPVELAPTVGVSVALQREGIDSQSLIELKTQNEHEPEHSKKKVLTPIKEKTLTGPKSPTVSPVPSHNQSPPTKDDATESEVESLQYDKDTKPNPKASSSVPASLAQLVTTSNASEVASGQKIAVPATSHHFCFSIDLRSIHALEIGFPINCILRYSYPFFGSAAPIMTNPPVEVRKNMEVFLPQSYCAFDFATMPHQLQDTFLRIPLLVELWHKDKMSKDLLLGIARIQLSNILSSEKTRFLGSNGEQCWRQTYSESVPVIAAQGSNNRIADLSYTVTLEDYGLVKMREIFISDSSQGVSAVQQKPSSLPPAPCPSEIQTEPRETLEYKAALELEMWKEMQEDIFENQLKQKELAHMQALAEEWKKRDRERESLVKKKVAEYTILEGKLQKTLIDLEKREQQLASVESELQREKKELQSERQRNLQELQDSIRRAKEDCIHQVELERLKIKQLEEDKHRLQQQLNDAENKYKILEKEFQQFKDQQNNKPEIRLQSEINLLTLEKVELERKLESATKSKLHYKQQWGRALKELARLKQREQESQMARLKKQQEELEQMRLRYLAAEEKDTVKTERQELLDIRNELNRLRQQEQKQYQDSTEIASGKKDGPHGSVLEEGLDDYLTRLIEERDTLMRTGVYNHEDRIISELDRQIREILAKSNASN
Sequence of Isoform 1 of Vinculin (human) (P18206 other isoform, or with tags, fused parts or gaps limits assumed): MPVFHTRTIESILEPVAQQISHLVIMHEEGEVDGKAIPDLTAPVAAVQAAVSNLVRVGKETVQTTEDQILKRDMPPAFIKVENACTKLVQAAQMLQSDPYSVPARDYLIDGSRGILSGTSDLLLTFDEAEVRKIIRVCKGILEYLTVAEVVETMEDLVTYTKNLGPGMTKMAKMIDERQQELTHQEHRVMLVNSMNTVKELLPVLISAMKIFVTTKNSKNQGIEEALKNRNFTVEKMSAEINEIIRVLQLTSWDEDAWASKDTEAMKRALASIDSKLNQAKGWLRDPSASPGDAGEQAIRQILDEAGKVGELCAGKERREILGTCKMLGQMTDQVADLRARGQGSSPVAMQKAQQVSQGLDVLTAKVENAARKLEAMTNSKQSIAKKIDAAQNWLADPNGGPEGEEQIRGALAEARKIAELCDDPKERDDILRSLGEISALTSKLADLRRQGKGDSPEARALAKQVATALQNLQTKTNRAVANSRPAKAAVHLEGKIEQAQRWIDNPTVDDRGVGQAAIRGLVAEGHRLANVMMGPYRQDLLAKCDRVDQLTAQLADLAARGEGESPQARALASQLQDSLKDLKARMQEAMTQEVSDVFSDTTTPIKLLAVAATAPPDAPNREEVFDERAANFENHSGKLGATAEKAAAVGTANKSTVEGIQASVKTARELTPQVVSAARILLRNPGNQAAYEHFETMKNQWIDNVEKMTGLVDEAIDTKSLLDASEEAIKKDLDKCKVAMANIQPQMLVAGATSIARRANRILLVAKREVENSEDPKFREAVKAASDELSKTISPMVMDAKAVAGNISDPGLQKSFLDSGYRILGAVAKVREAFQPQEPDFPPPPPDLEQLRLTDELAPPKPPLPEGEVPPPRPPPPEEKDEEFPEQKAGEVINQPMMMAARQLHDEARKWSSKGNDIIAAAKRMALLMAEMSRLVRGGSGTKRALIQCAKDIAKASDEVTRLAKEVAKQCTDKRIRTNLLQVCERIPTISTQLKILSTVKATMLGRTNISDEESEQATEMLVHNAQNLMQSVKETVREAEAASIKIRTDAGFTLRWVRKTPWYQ
Sequence of Lymphocyte-specific protein 1 (human) (P33241 whole entry): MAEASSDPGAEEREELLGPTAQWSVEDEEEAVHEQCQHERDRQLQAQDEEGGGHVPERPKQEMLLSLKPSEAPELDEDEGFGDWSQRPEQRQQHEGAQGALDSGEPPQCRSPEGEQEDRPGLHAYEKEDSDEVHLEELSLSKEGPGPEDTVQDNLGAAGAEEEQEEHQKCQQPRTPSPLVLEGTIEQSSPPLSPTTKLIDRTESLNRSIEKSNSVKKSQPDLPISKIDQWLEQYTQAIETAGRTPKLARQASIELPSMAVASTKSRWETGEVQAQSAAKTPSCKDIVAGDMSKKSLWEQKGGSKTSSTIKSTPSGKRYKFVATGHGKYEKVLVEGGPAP
Sequence of 14-3-3 protein gamma (human) (P61981 2-247 limits assumed): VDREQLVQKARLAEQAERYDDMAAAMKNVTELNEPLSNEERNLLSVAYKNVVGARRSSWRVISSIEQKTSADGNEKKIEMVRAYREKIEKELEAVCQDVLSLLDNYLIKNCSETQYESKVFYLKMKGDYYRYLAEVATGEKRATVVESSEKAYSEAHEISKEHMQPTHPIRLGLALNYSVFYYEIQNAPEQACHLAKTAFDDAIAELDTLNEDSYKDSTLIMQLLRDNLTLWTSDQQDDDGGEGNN
Sequence of Endoplasmin (human) (P14625 22-803 limits assumed): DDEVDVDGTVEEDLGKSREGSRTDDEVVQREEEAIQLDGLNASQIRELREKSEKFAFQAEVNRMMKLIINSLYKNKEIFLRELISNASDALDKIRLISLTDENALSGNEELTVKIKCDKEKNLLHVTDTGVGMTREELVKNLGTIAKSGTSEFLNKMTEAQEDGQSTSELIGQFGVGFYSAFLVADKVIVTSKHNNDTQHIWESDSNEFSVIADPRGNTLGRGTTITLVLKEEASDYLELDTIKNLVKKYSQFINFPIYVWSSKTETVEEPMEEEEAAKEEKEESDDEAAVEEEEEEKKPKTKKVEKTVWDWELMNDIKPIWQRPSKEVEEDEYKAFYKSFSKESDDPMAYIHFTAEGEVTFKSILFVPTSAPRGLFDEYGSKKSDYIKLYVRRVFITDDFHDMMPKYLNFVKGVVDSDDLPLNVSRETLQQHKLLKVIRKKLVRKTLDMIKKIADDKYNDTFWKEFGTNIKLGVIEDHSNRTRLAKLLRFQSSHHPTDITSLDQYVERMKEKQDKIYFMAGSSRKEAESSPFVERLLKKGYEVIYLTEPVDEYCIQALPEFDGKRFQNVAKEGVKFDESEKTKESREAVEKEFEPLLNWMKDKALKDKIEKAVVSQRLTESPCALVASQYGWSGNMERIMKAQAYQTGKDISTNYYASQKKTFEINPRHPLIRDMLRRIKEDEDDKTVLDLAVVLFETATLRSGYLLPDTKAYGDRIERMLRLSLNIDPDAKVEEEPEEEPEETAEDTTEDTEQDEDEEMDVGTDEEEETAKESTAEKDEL
Sequence of Coronin-1A (human) (P31146 2-461 limits assumed): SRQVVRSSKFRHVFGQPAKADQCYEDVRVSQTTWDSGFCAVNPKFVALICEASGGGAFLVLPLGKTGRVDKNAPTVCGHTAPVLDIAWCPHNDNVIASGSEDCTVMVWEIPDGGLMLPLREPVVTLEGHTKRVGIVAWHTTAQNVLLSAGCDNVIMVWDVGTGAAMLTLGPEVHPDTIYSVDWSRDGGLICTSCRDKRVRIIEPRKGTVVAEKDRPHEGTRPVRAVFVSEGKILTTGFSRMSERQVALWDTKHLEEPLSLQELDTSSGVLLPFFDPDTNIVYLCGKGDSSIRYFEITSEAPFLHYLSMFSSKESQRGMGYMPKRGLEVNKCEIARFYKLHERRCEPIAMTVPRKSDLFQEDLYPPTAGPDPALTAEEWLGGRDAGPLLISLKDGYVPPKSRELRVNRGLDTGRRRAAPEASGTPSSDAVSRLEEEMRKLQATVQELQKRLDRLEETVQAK
Sequence of Thymosin alpha-1 (human) (P06454 other isoform, or with tags, fused parts or gaps limits assumed): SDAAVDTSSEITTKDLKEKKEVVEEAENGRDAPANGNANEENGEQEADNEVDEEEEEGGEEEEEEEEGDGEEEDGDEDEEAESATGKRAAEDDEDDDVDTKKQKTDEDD
Sequence of Histone-binding protein RBBP7 (human) (Q16576 2-425 limits assumed): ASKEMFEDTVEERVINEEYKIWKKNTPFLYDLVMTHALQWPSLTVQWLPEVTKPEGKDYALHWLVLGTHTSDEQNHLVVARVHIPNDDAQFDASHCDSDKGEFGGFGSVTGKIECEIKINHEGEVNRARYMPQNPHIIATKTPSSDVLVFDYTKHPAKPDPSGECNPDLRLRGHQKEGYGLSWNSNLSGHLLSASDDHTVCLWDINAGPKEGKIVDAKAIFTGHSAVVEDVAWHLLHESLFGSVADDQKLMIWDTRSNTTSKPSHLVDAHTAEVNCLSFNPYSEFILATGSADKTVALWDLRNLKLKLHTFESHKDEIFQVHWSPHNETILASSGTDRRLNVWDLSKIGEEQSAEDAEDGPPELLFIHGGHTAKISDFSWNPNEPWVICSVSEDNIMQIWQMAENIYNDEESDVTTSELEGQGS

PIF15 affinity resin (Cys-C6 spacer-PIF15 conjugated to agarose) (peptide)
Ave [1]: 1
Inject 1 [1]: 1
Inject 2 [1]: 1
Inject 3 [1]: 2
Ave [2]: 3
Inject 1 [2]: 3
Inject 2 [2]: 3
Inject 3 [2]: 3
Ave [3]: 7
Inject 1 [3]: 6
Inject 2 [3]: 7
Inject 3 [3]: 7
Ave (Calreticulin (human)): 6
Inject 1 (Calreticulin (human)): 7
Inject 2 (Calreticulin (human)): 4
Inject 3 (Calreticulin (human)): 6
Ave [4]: 1
Inject 1 [4]: 2
Inject 2 [4]: 0
Inject 3 [4]: 0
Ave (Coronin-1A (human)): 2
Inject 1 (Coronin-1A (human)): 2
Inject 2 (Coronin-1A (human)): 2
Inject 3 (Coronin-1A (human)): 1
Ave (Endoplasmin (human)): 1
Inject 1 (Endoplasmin (human)): 0
Inject 2 (Endoplasmin (human)): 2
Inject 3 (Endoplasmin (human)): 1
Ave [5]: 1
Inject 1 [5]: 2
Inject 2 [5]: 0
Inject 3 [5]: 1
Ave [6]: 3
Inject 1 [6]: 3
Inject 2 [6]: 2
Inject 3 [6]: 3
Ave [7]: 1
Inject 1 [7]: 1
Inject 2 [7]: 2
Inject 3 [7]: 1
Ave [8]: 2
Inject 1 [8]: 4
Inject 2 [8]: 2
Inject 3 [8]: 1
Ave (Matrin-3 (human)): 1
Inject 1 (Matrin-3 (human)): 1
Inject 2 (Matrin-3 (human)): 2
Inject 3 (Matrin-3 (human)): 1
Ave (Plastin-2 (human)): 1
Inject 1 (Plastin-2 (human)): 1
Inject 2 (Plastin-2 (human)): 1
Inject 3 (Plastin-2 (human)): 2
Ave (Talin-1 (human)): 6
Inject 1 (Talin-1 (human)): 5
Inject 2 (Talin-1 (human)): 6
Inject 3 (Talin-1 (human)): 8
Ave (Thymosin alpha-1 (human)): 5
Inject 1 (Thymosin alpha-1 (human)): 5
Inject 2 (Thymosin alpha-1 (human)): 5
Inject 3 (Thymosin alpha-1 (human)): 4
Ave [9]: 2
Inject 1 [9]: 2
Inject 2 [9]: 3
Inject 3 [9]: 1
